Results from the supplement of paper PMC9876800.

Tested on: peptide library, one residue held at a place counted from the S/T acceptor
Assay: relative phosphorylation of the sub-library (ratio to the mean residue at this position); higher = residue favoured
Conditions: human
Summary of the method: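 In 384-well plates, purified recombinant kinases (human or orthologue constructs) were incubated for 90 min under kinase-specific conditions with 50 μM biotinylated degenerate peptide sub-libraries and 50 μM ATP spiked with γ-32P-ATP. Each sub-library fixed a single residue at one position around a central Ser/Thr. Relative sub-library phosphorylation, measured by phosphorimaging and densitometry of streptavidin membrane spots, is given as a ratio to the mean residue at that position.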

Sequence of TRPM7, construct: aa1158-1865 (Q96QT4 1158-1865, looked up): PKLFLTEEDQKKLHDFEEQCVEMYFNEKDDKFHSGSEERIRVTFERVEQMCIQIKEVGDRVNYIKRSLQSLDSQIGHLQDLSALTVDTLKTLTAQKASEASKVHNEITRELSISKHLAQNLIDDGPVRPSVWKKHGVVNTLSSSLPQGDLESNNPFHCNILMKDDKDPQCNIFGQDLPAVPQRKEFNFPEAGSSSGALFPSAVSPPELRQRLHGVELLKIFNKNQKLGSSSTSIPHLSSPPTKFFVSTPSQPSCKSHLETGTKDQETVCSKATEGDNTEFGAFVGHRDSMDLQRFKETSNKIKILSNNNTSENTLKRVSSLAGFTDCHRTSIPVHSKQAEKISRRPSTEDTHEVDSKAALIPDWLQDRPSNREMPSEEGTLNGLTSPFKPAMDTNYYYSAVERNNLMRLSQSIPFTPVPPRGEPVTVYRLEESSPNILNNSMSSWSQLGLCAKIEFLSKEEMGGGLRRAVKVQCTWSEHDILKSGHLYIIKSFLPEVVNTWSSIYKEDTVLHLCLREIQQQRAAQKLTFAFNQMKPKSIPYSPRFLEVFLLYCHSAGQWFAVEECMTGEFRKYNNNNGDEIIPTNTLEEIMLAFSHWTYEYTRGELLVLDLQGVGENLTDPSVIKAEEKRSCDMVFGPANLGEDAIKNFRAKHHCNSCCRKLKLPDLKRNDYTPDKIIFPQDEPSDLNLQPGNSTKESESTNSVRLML
Sequence of TLK1, construct: Full length (Q9UKI8 whole entry, looked up): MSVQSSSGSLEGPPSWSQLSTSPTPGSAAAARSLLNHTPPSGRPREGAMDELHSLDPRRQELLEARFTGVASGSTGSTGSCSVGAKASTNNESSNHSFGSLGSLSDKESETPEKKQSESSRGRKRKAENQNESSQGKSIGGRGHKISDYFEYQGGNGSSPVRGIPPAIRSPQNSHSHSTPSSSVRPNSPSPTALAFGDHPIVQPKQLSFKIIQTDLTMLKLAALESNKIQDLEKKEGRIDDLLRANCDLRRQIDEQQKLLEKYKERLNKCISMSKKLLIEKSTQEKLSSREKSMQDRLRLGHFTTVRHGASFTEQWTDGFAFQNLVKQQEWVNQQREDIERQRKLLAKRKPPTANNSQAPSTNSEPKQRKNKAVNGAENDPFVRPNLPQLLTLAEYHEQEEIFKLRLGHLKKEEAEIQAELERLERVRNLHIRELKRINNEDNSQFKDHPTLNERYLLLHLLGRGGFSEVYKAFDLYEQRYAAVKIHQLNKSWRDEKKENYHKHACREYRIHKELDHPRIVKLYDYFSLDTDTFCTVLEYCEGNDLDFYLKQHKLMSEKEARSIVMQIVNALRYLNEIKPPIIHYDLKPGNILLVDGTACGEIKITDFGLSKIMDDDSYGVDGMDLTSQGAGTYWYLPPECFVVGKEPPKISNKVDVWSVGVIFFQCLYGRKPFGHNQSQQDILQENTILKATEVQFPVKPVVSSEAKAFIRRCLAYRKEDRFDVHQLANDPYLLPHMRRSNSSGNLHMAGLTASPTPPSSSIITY

TRPM7, construct: aa1158-1865 (from UniProt Q96QT4)
relative phosphorylation
Conditions	at +1	at +2	at +3	at +4	at -1	at -2	at -3	at -4	at -5
A fixed	0.649	1.18	1.19	0.591	0.902	1.13	0.852	1.08	1.17
D fixed	0.266	0.121	0.341	0.604	0.484	0.551	0.659	0.821	0.972
E fixed	0.501	0.0976	0.256	0.561	0.489	0.576	0.836	1.07	1.05
F fixed	0.859	1.81	0.854	0.958	0.58	1.19	1.06	1.19	1.03
G fixed	0.451	0.661	0.904	0.871	0.406	1.28	0.897	1.08	1.4
H fixed	1.1	1.22	1.22	1.34	1.47	0.842	1.05	0.86	1.1
I fixed	1.26	0.601	0.42	0.781	0.46	0.446	0.686	0.668	0.532
K fixed	2.16	1.21	2.47	2.09	2.76	0.931	1.13	1.31	1.24
L fixed	1.18	0.477	0.662	0.859	0.996	0.868	1.01	0.872	0.608
M fixed	1.06	0.808	0.664	1.12	0.969	1.42	1.19	1.17	0.767
N fixed	0.54	0.445	1.11	1.16	1.25	0.857	1.48	1.09	1.2
P fixed	0.142	1.42	0.623	0.676	0.896	1.28	1.07	0.972	1.1
Q fixed	1.58	1.11	1.15	1.17	1.07	1.11	0.995	0.948	1.01
R fixed	2.14	2.06	2.52	1.61	2.11	0.975	1.36	1.17	1.29
V fixed	1.1	0.572	0.573	0.637	0.586	0.553	0.74	0.675	0.732
W fixed	0.79	1.4	0.831	1.13	0.487	2.17	1.02	1.12	0.976
Y fixed	1.22	1.81	1.21	0.852	1.08	0.822	0.954	0.884	0.811
pThr fixed	0.455	0.317	0.499	0.68	0.488	0.704	0.893	1.11	1.05
pTyr fixed	0.856	0.489	0.677	0.541	0.776	0.675	1.09	0.916	1.08

SRPK2, construct: Full length (from UniProt P78362)
relative phosphorylation
Conditions	at +1	at +2	at +3	at +4	at -1	at -2	at -3	at -4	at -5
A fixed	0.712	1.14	0.669	0.878	0.911	1.6	0.473	0.89	1.01
D fixed	0.338	1.38	0.556	0.992	0.577	2.3	0.364	0.723	0.669
E fixed	0.495	1.2	0.406	0.747	0.626	1.46	0.305	0.685	0.713
F fixed	0.35	1.12	0.427	0.715	0.468	0.64	0.265	0.697	0.971
G fixed	0.597	0.77	0.921	1.16	0.901	1.11	0.363	0.818	1.12
H fixed	0.663	1.01	0.699	1.11	1.6	1.56	0.44	1.11	1.15
I fixed	0.667	0.647	0.369	0.783	0.361	0.298	0.222	0.549	0.593
K fixed	1.6	2.02	1.29	1.51	2.2	0.995	0.918	1.71	1.75
L fixed	0.852	0.772	0.407	0.875	0.671	0.361	0.232	0.644	0.648
M fixed	0.839	0.547	0.383	0.794	0.693	0.538	0.288	0.719	0.754
N fixed	1.11	0.934	0.666	1.02	1.09	1.22	0.354	0.988	0.999
P fixed	4.58	1.22	1.72	1.06	1.44	0.822	0.347	1.84	0.758
Q fixed	1.08	0.939	0.687	1.07	1.66	0.714	0.528	0.956	0.834
R fixed	1.23	1.13	6.39	1.59	1.92	1.63	11	2.28	2.36
V fixed	1.07	0.976	0.442	0.815	0.726	0.449	0.246	0.696	0.769
W fixed	0.407	0.581	0.502	1.03	0.522	0.614	0.351	0.898	1.07
Y fixed	0.412	0.618	0.474	0.863	0.629	0.695	0.319	0.794	0.829
pThr fixed	0.513	0.839	0.67	0.956	0.411	0.555	0.363	0.65	0.55
pTyr fixed	0.696	0.733	0.646	0.951	0.763	1.09	0.45	1.25	0.809

TLK1, construct: Full length (from UniProt Q9UKI8)
relative phosphorylation
Conditions	at +1	at +2	at +3	at +4	at -1	at -2	at -3	at -4	at -5
A fixed	0.502	0.943	1.34	0.901	1.02	1.28	1.23	0.986	0.846
D fixed	0.279	1.17	0.745	0.602	2.36	3.12	2.28	1.26	0.993
E fixed	0.353	0.499	0.939	0.52	1.98	3.77	1.44	1.01	0.812
F fixed	0.586	1.4	1.32	1.77	0.517	0.384	0.887	1.51	1.46
G fixed	0.296	0.832	1.13	0.978	0.518	0.875	0.741	0.765	0.693
H fixed	0.917	1.63	1.06	0.957	1.08	0.843	1.14	1.12	0.909
I fixed	1.06	0.658	0.707	0.968	0.717	0.384	0.688	1.24	1.06
K fixed	0.848	0.636	0.646	0.891	1.02	0.512	0.856	0.757	0.952
L fixed	1.49	1.02	0.72	1.02	0.887	0.371	0.679	0.984	0.936
M fixed	2.43	1.6	0.993	0.964	0.751	0.588	0.907	0.896	0.826
N fixed	1.66	0.582	0.636	0.674	1.44	1.35	1.09	0.598	0.609
P fixed	0.217	0.821	1.29	1.38	0.364	0.484	0.856	0.554	0.897
Q fixed	2.14	0.964	0.808	0.722	0.808	1.11	0.775	0.871	0.697
R fixed	1.98	0.664	0.848	0.815	1.27	0.504	1.01	0.795	1.32
V fixed	0.996	0.569	0.809	0.81	0.789	0.497	0.659	1.21	1.16
W fixed	0.669	2.09	1.6	1.77	0.633	0.46	0.836	1.26	1.43
Y fixed	0.577	0.931	1.41	1.26	0.831	0.47	0.932	1.2	1.41
pThr fixed	0.472	0.804	0.79	0.807	0.694	1.76	1.85	1.18	0.601
pTyr fixed	0.518	1.39	1.48	1.08	1.61	2.32	1.4	1.55	1.68
